# Reference: the supplement of paper PMC12855868
# B1: library; numbered along this chain (parent)
# chain: MAAAGGARLLRAASAVLGGPAGRWLHHAGSRAGSSGLLRNRGPGGSAEASRSLSVSARARSSSEDKITVHFINRDGETLTTKGKVGDSLLDVVVENNLDIDGFGACEGTLACSTCHLIFEDHIYEKLDAITDEENDMLDLAYGLTDRSRLGCQICLTKSMDNMTVRVPETVADARQSIDVGKTS
# Variants of: B1
# Test: scaled log2 fold change in cell abundance, elesclomol vs control (0 = silent mean, 1 = nonsense mean) (scaled log2 ratio); higher = higher viability under elesclomol (loss of FDX1 cuproptosis function)
# Conditions: glucose 10 mM
# [1] = with ABC1 FDX1 KO, elesclomol 5 nM, 14 days
# [2] = with HEK293T FDX1 KO, elesclomol 40 nM, 11 days
# 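Further: variant abundance is its share of total variant reads in each endpoint sample, from next-generation sequencing of the integrated ORF PCR-amplified out of genomic DNA.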
Variant,scaled log2 fold change [1],scaled log2 fold change [2]
A57M,-0.0569,-0.0232
M160L,-0.304,
V16W,-0.405,
V171Y,-0.342,-0.405
R39Y,0.0455,-0.31
R39C,-0.483,0.689
R39L,-0.142,-0.141
S184T,-0.0663,-0.512
S184F,0.3,-0.432
A7E,0.407,
G108W,0.949,0.989
T170F,0.262,0.826
T170M,-0.185,
E133K,0.105,0.342
D75I,-0.502,-0.38
T145Y,0.224,0.0425
L10N,0.128,-0.352
L10E,0.307,-0.18
L10Y,0.409,0.302
L138V,-0.213,-0.414
N135E,-0.00674,0.0823
N135Q,0.215,-0.339
L17Q,-0.0277,-0.517
L17Y,-0.147,0.613

Variant,scaled log2 fold change [1],scaled log2 fold change [2]
E95K,0.0162,-0.042
Y124N,0.36,1.01
Y124S,0.413,0.62
A3C,0.227,0.756
D87Q,-0.303,0.511
C112R,1.08,1.29
E77N,0.0389,-0.504
Y142L,-0.24,-0.251
C106W,1.05,1.27
R147D,0.339,0.314
G104R,0.848,0.682
M137S,-0.337,-0.153
T80A,-0.231,
T80V,0.126,-0.0679
G143R,0.384,-1.11
N40K,-0.0431,0.421
A174T,0.187,-0.546
Q153L,0.241,-0.00657
L110S,-0.279,1.18
L110E,0.704,0.547
L110V,0.108,-0.578
V167P,0.251,-0.184
G181Y,0.093,-0.568
R23I,0.309,

Variant,scaled log2 fold change [1],scaled log2 fold change [2]
R23T,-0.164,-0.141
N97K,0.149,0.739
A21E,-0.0483,-0.444
E134I,1.03,0.865
E134Y,0.977,2.18
I118G,0.403,-0.108
E120Y,0.267,-0.449
E48P,0.619,0.304
L156C,0.353,0.332
A2P,-0.0191,0.0189
A2L,0.0991,-0.056
A4G,-0.52,-0.212
P20K,0.251,
G76C,0.377,0.277
D121H,-0.394,-0.25
D101I,-0.248,-0.191
G45W,0.411,0.942
V93S,0.115,-0.534
R58S,0.12,-0.815
D173R,0.198,0.613
V85Q,0.0746,-0.0938
G5I,0.0847,-0.0288
C115Y,1.1,0.829
R175S,0.343,0.224

Variant,scaled log2 fold change [1],scaled log2 fold change [2]
F119H,0.658,-0.0181
R60H,-0.288,-0.116
R60K,-0.27,
V180S,-0.754,-1.45
V180W,-0.111,0.322
V180T,0.143,-0.33
L140Y,-0.351,-0.373
L79K,0.0188,0.977
L79P,0.634,0.299
G86Y,0.0464,0.586
G86M,-0.125,-0.231
T109S,-1.08,-0.288
C155K,-0.165,6.73e-05
C155L,0.0756,-0.359
A28V,0.133,-0.408
K82S,-0.449,
L53W,0.155,0.498
L53K,0.299,0.00452
A172D,0.0896,1.11
L89H,1.34,0.109
L89F,0.706,0.454
L89N,1.2,0.434
D128P,0.196,
S62T,-0.0712,-0.205

Variant,scaled log2 fold change [1],scaled log2 fold change [2]
G102R,0.164,-1.7
A59H,-0.614,
A141M,-0.0992,0.123
A141W,-0.0378,-0.209
K126R,-0.769,-0.286
E107G,-0.152,0.114
L38D,0.132,-0.187
N96T,-0.0877,-0.163
N96G,0.111,0.179
L150G,0.757,0.513
S14T,-0.472,
F103N,1.06,1.03
L117F,0.176,0.206
L117E,1.05,0.745
L37H,-0.125,-0.331
L37Y,0.353,0.0859
S113E,0.672,-0.214
S113V,0.242,-0.434
S54G,-0.1,-0.00382
N162H,-0.203,0.208
E169N,-0.234,0.306
S35I,0.293,0.132
G33N,0.0785,0.48
L90K,0.0261,
